Assay results taken from the nanobody polyreactivity screen of Harvey et al. (2022).

Experiment: yeast display, Sf9 membrane polyspecificity reagent, FACS + sequencing; frameworks hold sequencing errors
Outline: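 Genes from sorted yeast were amplified by colony PCR, read by MiSeq 2 × 250 sequencing and filtered on CDR length. These cells carried a synthetic nanobody library in Saccharomyces cerevisiae BJ5465 and were sorted by FACS into low and high (top ~1%) gates on anti-HA and streptavidin fluorescence. Polyreactivity is labelled according to the gate of origin.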

| Sequence | polyreactivity (PSR sort gate) |
| --- | --- |
| QVQLEESGGGLVQAGGSLRLSCAASGYIFDYNAMGWYRQAPGKERELVAVISRGGRTYYADSVKGRFTISRDNAKNTVYLQMNILKPEDTAVYYCAADRQSYPYDYWGQGTQVTVSS | high polyreactivity |
| QVQLEESGGGLVQAGGSLRLSCAASGYTFATYAMGWSRQAPGKERELVAAISQGGDRTNYADSVKGRFTISRDNAKITVYLQMNSLKPEDTSVYYCAVRYASRQSRFYYWGQGTQVTVSS | high polyreactivity |
| QVQLEESGGGLVQAGGSLRLSCAASRRIFGSNAMGWYRQAPAKERELVAVITSGGRTYYADSVKGRFTISRDNAKNTVYLQMNSLKPGDTSVYYCNAYYKAAYDYWGQGTQVTVSS | high polyreactivity |
| QVQLEESGGGLVQAGGSLRLSCAGSGRIFAYYPMGWYRQAPGKERELVAAISRSGVSTYYADSVKGRFTISRDNAKNTVYLQMNSLKPEDTAVYYCAATYWRRGGYRMEYWGQGTQVTVSS | low polyreactivity |
| QVQLEESGGGLVQAGGSLRLSCAPSGYNYRKNVIGWYRQAPGKERELVAAISARGGSTYYADSVKGRFTISRDNAKNTVYLQMYSLKAEVTAVYFCNTDGYLYPYDSWGLGTQVTVSS | high polyreactivity |
| QVQLEESGGGLVQAGGSLRLSCASSGSTFPYNAMGWYRQAPGKERELVAANTSGASTNYADSVKGRFTISRENAKNTVYLQMNRLKPEDTAVYYCAAQSFGKRIWSPRYQLNYWGQGTQVTVSS | low polyreactivity |
| QVQLEESGGGLVQAGGSLRLSCDASGRIFGGYAMGWYRQAPGKERELVAAISASGGRTYYADSVKGRFTISRDNAKNTVYLQMNSLKPEDTAVYYCAASFRRTSLRWHGEYWGQGTQVTVSS | high polyreactivity |
| QVQLEESGGGLVQAGGSLRLSCPASGITFYRYVMGWNRQAPGKERELDAAINWSTGTTNYADSVKGRFTISRDNAKNTVYLQMNSLKPEDTAVYYCNARYRLRFIYSLRYDYWGQGTQVTVSS | high polyreactivity |
| QVQLEESGGGLVQAGGSLRLSCPASGSTFIVNVMGWYRQAPGKERELVAAINSGGSTDYADSVKGRFTISRDNAKNTVYLQMNSLKPEDTAVYYCNAYHIVIYDYWGQGTQVTVSS | low polyreactivity |
| QVQLEESGGGLVQAGGSLRLSCSAYGFTFSRYDMGWYRQAPGKERELVAAISWSGGSTYYADSVKGRFTISRDNAKNSVYLQMNSLKPEDTAVYYCAKPGWSVTGESWGQGTQVTVSA | high polyreactivity |
| QVQLEESGGGLVQAGGSLRLSFAASGFTFVRNTMGWDRQAPGKERELVAAISRSGGSTYYADSVKGRFTISRDKAKNTVYLQMNSLKPEDTAVYYCNAYRYVHYDWGQGTQVTVSS | high polyreactivity |
| QVQLEESGGGLVQAGGSLRLSSAASGFTFAFYAMGWYRQAPGKERELVAAISRRGGSTTYADSVKGRFTISRDNAKNTVYLQMNSLKPEDTAVYYCNAVSTRNPGPDYYYWGQGTQVNVSS | high polyreactivity |
| QVQLEESGGGLVQAGGSLRLSYAASGSIYSYYAMGWYRQAPGKERELVAAISRSGTSTYYADSVKGRFTISRDNAKNTVYLQMNSLKPEDTAVYYFGYYYGGDYWGQGTQVTVSS | high polyreactivity |
| QVQLEESGGGLVQAGGSLRLTCAASGLTSRNYAMGWYRHAPRKARELVAAISKSGSRTYYADSVKGRFTISRDNAKNTVYLQMNSLKPEDTAVYYCATDYLDGTSYDYWGQGTQVTVSS | high polyreactivity |
| QVQLEESGGGLVQAGGSLRLTCAASGRIFTPYAMGWYRQAPGKQTELVADIRDGSTYYADSVKGRFTISRDNAKNTVYLQMNSLKPEDTAVYYSRYYIWVWWSGAYDYWGQGTQVTVSS | low polyreactivity |
| QVQLEESGGGLVQAGGSLRLTCAASGRNFTYYAMGWSIQAPGNEREIVAAISSSGGSTSYADSVKGRFTISRDNAKNTVYLQMNSLKPEDTAVYYCAAVTRDYGSRSGLDYWGQGTQVTVSS | high polyreactivity |
| QVQLEESGGGLVQAGGSLSLSCAASGSTFDNYAMGWYRKAPGKERELVADITWSGGSTYYADSVKGRFTISRDNAQNSVYLQMNSLKAEDTAVYYCNTAGYYTKYDYWGQGTQVTVSS | low polyreactivity |
| QVQLEESGGGLVQAGVSLRLSCAASGSTFSLYAMGWYRPAPGKERELVAAISSGGRTNYADSVKGRFTISRDNAKKTVYLQMNSLKPEDTAVYYCAARIQWPTWSLYYYWGQGTQVTVSS | high polyreactivity |
| QVQLEESGGGLVQEGGSLRLSCADSGFTLWLNAMGWYRQAPGKERELVAAITTSDDGTYYADSVKGRFTISRDNAKNSVYLQMNSMKPEDTAVYYCAADYYSVLYDYWVQGTQVTVSS | low polyreactivity |
| QVQLEESGGGLVQGGGSLRLSCAASGSNFQDNAMGWYRQAPGKERELVAAITGRDASTYYADSVKGRFTISRDNAKNTVYLQLNCLKPEDTAVDYCYWGQGTQVTVSS | low polyreactivity |
| QVQLEESGGRLVQAGGSLRLSCAASGRTFGPYGMGWYRQAPGKESELDAAINGNGDSTYYADSVKGRFTISRDNAKNTVYLQMNSLKPEDTAVYYCASEGWPDYTSRLYDYWGQGTQVTVSS | low polyreactivity |
| QVQLEESGGRLVQAGGSLRLSCAASGSIFALYAMGWYRQAPGKERELVAAIDWSDGGTYYADSVKGRFTISRDNAKNTLYLQMNSLKPEDTAVYYCNRVYSTSRITQYEFDYWGQGTQVTVSS | low polyreactivity |

| Sequence | polyreactivity (PSR sort gate) |
| --- | --- |
| QVQLEESGGRLVQEGGSLRLSCAASGSTFITNAMGWYRQAPGKEWELVAAITYSTGGTYYEDSVKGRFTISRDNAKNTVYLQMYSLKPEDTAVYYCAALLYFFLYDYWGQGTQVTVSS | low polyreactivity |
| QVQLEESGRGLVQAGGSLRLSCAASGFTFSLYAMGWYRQAPGKERELVAAISSRSGSTFYADSVKGRFTISRDNAKNTVYLQMNSLKPEDTAVYYCAARRDWLGGYWGQGTQVTVSS | high polyreactivity |
| QVQLEESGRGLVQAGGSLRLSCAASGRTFLQYAMGWYRQAPRKERELVAANTTSGGDTYYADSVKGRFTISRDNAKNTVYLQMNSLKPEDTAVYYCNADFRVYIPHVPYFVDFDYWGQGTQVTVSS | low polyreactivity |
| QVQLEESGVCLVQAGGSLRLSCAASGYIFISYARGWYREAPGKEREFVAAITGDGGSTYADSEKGRFTISRDNAKNTVYLLMNSLKPEDTAVYYCAVDGYGGEADYEFDHWGQGTQVNVSS | low polyreactivity |
| QVQLEESGVGLVQAGGSLRLSCAASGFTFYYNAMGWYRQAPGKERELVAGITWSGGSTYYADSVKGRFTISRDNAKNTVYLQMNSLKPEDTAVYYFAKDHQDSDYDYWGQGTQVTVSS | high polyreactivity |
| QVQLEESGVGLVQAGGSLRLSCPASGRIIYRNAIVWYSQAPGKERELVAAITGSGGITYYADSVKGRFTISRDNAKNTVYLLMNSLKPEVTAVYYCAARAKFLSVPTYDNWGQGTQVTVSS | high polyreactivity |
| QVQLEESRGGLVQAGGSLRLSCAASGYTLYEYAMGWYRQAPGKERELDAAITRSGGSTYYADSVKGRFTISRDNAKNTVYLQMNSLKPEDTAVFYCNADIYSRHTVGGYYYWGQGTQVTVSS | high polyreactivity |
| QVQLEESVGGLVQAGGSLRLSCAASGFTFHRYAMGWYTQAPGKERELVAGITRRSGSTFYADSVQGRFTISRDNAKNTVFLQMNSLKPEDTAVYYCAATVPGLHWIYDYWGQGTQVTVSS | high polyreactivity |
| QVQLEESVGGLVQAGGSLRLSCAASGRIFTIYAMVSYRQAPGKERELVAAISDRGTRTYYADSVKGRFTISRDNAKNTVYLQMNSLKPDDTAVYYCATDALYTYGYDYWGQGTQVTVSS | low polyreactivity |
| QVQLEESWGGLVQAGGSHRLICAASGSTIGYYAMGWYRQAPWKEREFVASITWGGASTDYADSVKGRFTISRDNAKNSVYLQMNSMKPEDTAVYYCAKDNWDNPRPTSEMDYWGQGTQVTVSS | low polyreactivity |
| QVQLEETRGGLVQAGGSLRLSCAASGSIFPYYALGWYRQAAGKERELVASINQTDGTTYYADSVKGRFTISRDNAKNNVYLQMNSLKPDDTAFYYCPADTTLQAFIPYRPIGSYDSWGQGTQVTVSS | low polyreactivity |
| QVQLEVSGGGLVQAGGSLLLSCAASGFTFYFYAMGWSRQATGTERELVAAISRSGSRTYYADSVKGRFTISRDNAKNTVYLQMNSLKPEDTAVYYCARVRPRGLYFVLHYDYWGQGTHVTVSS | high polyreactivity |
| QVQLGDSGGGLGQAGGSLRLSCAASGSTFASDTMGWYRQEPGKERYLVATISRPGGTTNYADSVKGRFTISRDNAKNTVYLQMNSLKPEDTAVFDCARRYPRYDFAYGYDYWGQGTQGTVSS | high polyreactivity |
| QVQLGESGAGIVQAGGSLRLSCAASGSTFQTYAMGWYRQAPGKERELVAAITWRGGSTYYAHSVKGRFTISRDNAKNTVYLQMNSLKPEDTAVYYCAAKWLGAHDHRAAYDSWGQGTQVTVSS | low polyreactivity |
| QVQLGESGGGLLQAGGSVRLSCAASGRTITANAMGLYRQAPGKERELFATISTRGGRTYYADSVKGRFTISRDNSKNTVYLQMHSLKPEETAVFYGAFTIRAKYTLKEDYWGQGTQVTVSS | low polyreactivity |
| QVQLGESGGGLVQAGGRLRLSCAASGYTFGYYTMGWYRQAPGKERELVASIDSGGGTNYADSVKGRFTISRDNAKNTVYLQMNSVKAEDTAVYYCAAESPLYWVDDFESGWRYYYWGQGTQVTVSS | low polyreactivity |
| QVQLGESGGGLVQAGGSHRLICAATASTLGGYAMGWYRQAPGTERELVAAITRSGGSTYYADSVKGRFTISRDNAKNTVYLQMNSLKPEDTSVNYCGADRYSYFNIGYDYWGQGTQVTVSS | low polyreactivity |
| QVQLGESGGGLVQAGGSLGLSCAASGLTFIVYAMGWYRQAPGKERELVADITWSGGSTYYADSVKGRFTISRDNAKNTVYLQMNSLKPEDTAVYYCNRQSGNIMDYWGQGTQVTVSS | low polyreactivity |
| QVQLGESGGGLVQAGGSLRLRCAASGRIFNGYTMGWYRQAPGKERELVAAISRGGSTYYADSVKGRLTISRDNAKNTVYLLMNSLKPEDTAVYYCAASHRFGYEYWGHGTQVTVSS | high polyreactivity |
| QVQLGESGGGLVQAGGSLRLSCAAAGFIFRPYAMGWYRQAPGKERELVAVISNSGGSSNYADSVKGRFSISRENAKNTVYLQMNSLKPEDTAVDYCNALVYVPHWWTYYDWGQGTQVTVSS | high polyreactivity |
| QVQLGESGGGLVQAGGSLRLSCAACGSIFKPYAMGWYRQAPGTERELVAAISGIGGSTYYADSVKGRFTISRDTAKNTVYLQMNSLTPEDTAVYYCAADTFFKIFSEYNYWGQGTQVTLSS | high polyreactivity |
